Assay results published in article PMC2173386 (The Journal of Cell Biology, 2002).

T1: His-p47(171–270) (UniProt O35987 171-270)
T1 sequence (looked up): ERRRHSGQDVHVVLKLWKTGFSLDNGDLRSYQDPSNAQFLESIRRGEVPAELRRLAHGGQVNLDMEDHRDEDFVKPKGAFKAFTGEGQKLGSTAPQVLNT


Key:
His-p47(171–270) = molecular target: T1, His-p47(171–270); experiment: pull-down
[1] = molecular target: T2, p97 (valosin-containing protein) (rat, UniProt P46462 1-806); experiment: pull-down
[2] = molecular target: T2, p97 (valosin-containing protein); experiment: co-IP

binding result [1]	Binder	other results
	GST-tagged p97(1–74) (domain or fragment, rat, UniProt P46462 1-74, looked up) MASGADSKGDDLSTAILKQKNRPNRLIVDEAINEDNSVVSLSQPKMDELQLFRGDTVLLKGKKRREAVCIVLSD	binding result (His-p47(171–270)): binds
binds	GST-tagged p47(171–270) (domain or fragment, UniProt O35987 171-270, looked up) ERRRHSGQDVHVVLKLWKTGFSLDNGDLRSYQDPSNAQFLESIRRGEVPAELRRLAHGGQVNLDMEDHRDEDFVKPKGAFKAFTGEGQKLGSTAPQVLNT	
	His-tagged VCIP135(744–1221) (domain or fragment, rat, UniProt Q8CF97 744-1221, looked up) TVSPSTIRDGPSSAPATPTKAPYSPTTSKEKKIRITTNDGRQSMVTLKSSTTFFELQESIAREFNIPPYLQCIRYGFPPKELMPPQAGMEKEPVPLQHGDRITIEILKGKAEGGPSTAAHSAHTVRQEEIAVTGKLSSKELQEQADKEMYSLCLLATLMGEDVWSYAKGLPHMFQQGGVFYNIMKKTMGMADGKHCTFPHLPGKTFVYNASEDRLELCVDAAGHFPIGPDVEDLVKEAVSQVRAEATTRSRESSPSHGLLKLGSGGVVKKKSEQLHNVTAFQGKGHSLGTASSNPHMDPRARETLAVRKHNTGTDFSNSSIKTEPPVFTAASSNSELIRIAPGVVTMRDGRQIDPDVVEAQRKKLQEMVSSIQASMDKHLRDQSTEQTPSDLSQRKVEAVSSSVRPGNLQTGLPESFSLTGGTENLNTETTDSRVADVLGAAFATRSKAQKENSMEEPEEMDSQDAETTNTTEPMDHS	binding result [2]: binds
binds	GST-tagged p47(271–370) (domain or fragment, UniProt O35987 271-370, looked up) SSPAQQAENEAKASSSILINEAEPTTNIQIRLADGGRLVQKFNHSHRISDIRLFIVDARPAMAATSFVLMTTFPNKELADENQTLKEANLLNAVIVQRLT	
